Reference: PMC12316982 (Nature Communications, 2025)

molecular target: unmodified NA of A/Vietnam/1203/2004 (VN04, H5N1) (Influenza A virus A/Vietnam/1203/2004 …, UniProt Q6DPL2, strain); experiment: ELISA; conditions: both partners purified

Row | Binder | binding result
1 | NCS.1.1 (human IgG1) (antibody, V domains shown) VH: QVQLQESGPRLVKPSETLSLTCSVSGESISSGGYYWTWIRQHPGKGLEWIGNIFDTGSTDYSPSLKTRLTISIDTSKNQFYLRLNSATAADTAVYYCARVGFSLETDRPYYLGLDVWGQGTTVTVSS VL: DIVMTQSPLSLPVTPGEPASISCRSSQSLLHSNGYTYLDWYLQKPGQSPQLLISFTSNRASGVPDRFSGSGSGTYFTLKISRVEAEDVGVYYCMQAVQTPWTFGQGTKVEIK | binds
2 | NCS.1 (human IgG1) (antibody, V domains shown) VH: QVQLPESGPRLVKPSETLSLTCSVSGESISSGGYYWTWIRQHPGKGLEWIGNIFDTGSTHYSPSLKTRLTISIDTSKNQFYLRLNSATAADTAVYYCARVGYSLETDRPYYFGLDVWGQGTTVTVSS VL: DIVMTQSPLSLPVTPGEPASISCRSSQSLLHSNGYTYLDWYLQKPGQSPQLLIYLASNRASGVPDRFSGSGSGTYFTLKISRVEAEDVGVYYCMQAVQTPWTFGQGTKVEIK | binds
3 | NCS.1.3 (human IgG1) (antibody, V domains shown) VH: QVQLQESGPRLVKPSETLSLTCSVSGESISSGGYYWTWIRQHPGKGLEWIGNIFDTGSTDYSPSLKTRLTISIDTSKNQFYLRLTSATAADTAVYYCARVGFSLETDRPYYLGLDVWGQGTTVTVSS VL: DIVMTQSPLTLPVTPGEPASISCRSSQSLLHSNGYTYLDWYLQKPGQSPQLLIYFASNRASGVPDRFSGSGSGTYFTLKISRVEAEDVGVYYCMQAVQSPWTFGQGTKVEIK | binds
